For assay [1], the target named is T1, human LAG-3 (full length, on the cell surface) (human, UniProt P18627 23-525).
T1 construct: Full-length human LAG-3 expressed on cells; also called HEK293-hLAG-3; HEK293 cells transfected with LAG-3 gene
T1 sequence: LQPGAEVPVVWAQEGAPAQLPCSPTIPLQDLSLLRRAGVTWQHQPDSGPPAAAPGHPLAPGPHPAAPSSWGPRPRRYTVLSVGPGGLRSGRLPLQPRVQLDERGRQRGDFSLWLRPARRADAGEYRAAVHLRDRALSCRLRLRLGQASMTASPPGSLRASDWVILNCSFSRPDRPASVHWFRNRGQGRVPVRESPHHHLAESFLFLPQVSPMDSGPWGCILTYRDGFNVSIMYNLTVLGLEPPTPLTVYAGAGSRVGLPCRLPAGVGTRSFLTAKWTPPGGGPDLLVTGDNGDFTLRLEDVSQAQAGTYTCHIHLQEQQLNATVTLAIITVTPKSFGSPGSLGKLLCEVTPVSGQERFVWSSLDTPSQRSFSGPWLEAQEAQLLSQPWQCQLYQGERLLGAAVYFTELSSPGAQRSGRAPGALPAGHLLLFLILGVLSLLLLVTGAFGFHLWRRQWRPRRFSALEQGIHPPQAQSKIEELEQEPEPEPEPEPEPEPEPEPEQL
In words: FACS, HEK293-hLAG-3; 40.000 nM. An excerpt: The pIRES plasmid with the monkey-derived full-length gene was transfected into the HEK293 cell line to construct a HEK293 stable cell line containing monkey LAG-3 (herein referred to as HEK293-cLAG-3 stable cell line). The HEK293-hLAG-3 stable cell line and HEK293-cLAG-3 stable cell line were expanded in a T-75 cell culture flask to a 90% confluence. The medium was aspirated, and the cells were washed with HBSS (Hanks' Balanced Salt Solution) 1-2 times, then treated with a enzyme-free cell dissociation fluid (Versene solution: Life technology) and the cells were collected. The cells were washed with HBSS buffer for 1-2 times. After counted, the cells were diluted with HBSS to 1-2×10⁶ cells per ml, added with 1% goat serum blocking solution, incubated on ice for 20-30 minutes, and then washed with HBSS for 2 times by centrifugation. The collected cells were suspended in the FACS buffer (HBSS+1% BSA) to 2×10⁶ cells/ml, added as 100 microliters per well to a 96-well FACS reaction plate, added with 100 microliters per well of the antibody sample to be tested, incubated on ice for 1-2 hours. The plate was washed twice with the FACS buffer by centrifugation, added with 100 microliters of fluorescent (Alexa 488)-labeled secondary antibodies per well, and incubated on ice for 0.5-1.0 hours. The plate was washed 2-3 times with FACS buffer by centrifugation, added with 100 μl fixative solution (4% Paraformaldehyde) per well to suspend the cells. 5-10 minutes later, it was washed 1-2 times with FACS buffer by centrifugation. The cells were suspended with 100 microliters of FACS buffer, FACS (FACSCalibur, BD) was used for detection and the results were analyzed.
On the technique in general: In flow cytometry, cells or beads pass a laser one at a time.

Assay [2] has as its target T2, mouse LAG-3 protein with hFc tag (mLAG-3-hFc protein) (mouse; human, UniProt Q61790 24-442).
T2 construct: Made in HEK293 cells; also called mouse LAG-3 extracellular domain protein; not shown: human IgG Fc fragment (hFc) of the pCpC vector
T2 sequence: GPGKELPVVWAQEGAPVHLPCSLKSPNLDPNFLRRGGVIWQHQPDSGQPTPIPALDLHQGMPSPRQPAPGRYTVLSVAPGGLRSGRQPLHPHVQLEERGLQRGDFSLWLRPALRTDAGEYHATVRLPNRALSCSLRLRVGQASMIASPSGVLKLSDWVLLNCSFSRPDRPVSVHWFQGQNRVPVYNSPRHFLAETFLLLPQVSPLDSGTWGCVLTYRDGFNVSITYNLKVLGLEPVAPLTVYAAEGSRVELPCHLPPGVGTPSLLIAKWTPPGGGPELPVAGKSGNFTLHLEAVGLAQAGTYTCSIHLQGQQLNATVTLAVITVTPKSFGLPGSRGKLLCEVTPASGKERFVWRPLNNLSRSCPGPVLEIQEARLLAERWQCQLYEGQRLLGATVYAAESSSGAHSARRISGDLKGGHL
Kind of assay: ELISA, mLAG-3-hFc coated; 0.0667 nM. On the procedure:
(§1) The plate was sealed with plastic film and incubated overnight at 4° C. The plate was washed 2 times with the plate washing solution (PBS+0.01% Tween20) on the next day, and added with the blocking solution (PBS+0.01% Tween20+1% BSA) and blocked at room temperature for 1-2 hours. The blocking solution was poured out, and the plate was added with 50-100 μl of the antibody sample to be tested to each well, incubated at 37° C. for 1-2 hours, and washed 2-3 times with a plate washing solution (PBS+0.01% Tween20). HRP (horseradish peroxidase) labeled secondary antibody was added, and the plate was incubated at 37° C. for 1-2 hours, and washed 2-3 times with a plate washing solution (PBS+0.01% Tween20). 100 μl of TMB substrate was added to each well. After incubated at room temperature for 15-30 minutes, the plate was added with 100 μl of stop solution (1.0N HCl) to each well.

In assay [3] the target is T2, mouse LAG-3 protein with hFc tag …. In words: ELISA, mLAG-3-hFc coated; 0.0001 nM. On the procedure:
as §1
For orientation: ELISA stands for enzyme-linked immunosorbent assay.

The values that follow come from US20210155689A1 (SHANGHAI PHARMAEXPLORER, published 2021).

B1: 405B8H3 (mouse antibody purified from hybridoma) (antibody, V domains shown)
VH: QVQLQQSGAELVRPGASVTLSCKASGYTFTDYEMHWVKQTPVHGLEWIGATDPETGNSAYNQKFKGKAIMTADKSSSTAYMELRSLTSEDSAVYYCISTGWNDWGQGTSLTVSS
VL: DIKMTQSPSSMYASLGERVTITCKASQDINSYLSWFQQKPGKSPKTLIYRADRLLDGVPSRFSGSGSGQDYSLTISSLEYGDMGIYYCLQYDEFPYTFGGGTKLEIK
notes: also called mAb103-405B8H3; 405B81-13
For B1, in assay [1], the Mean fluorescence intensity worked out at 321 MFI.

B2: 105F1E10 (mouse antibody purified from hybridoma) (antibody, V domains shown)
VH: EVQLQQSGPELVKPGASVKMSCRASGYTFTDFKMHWMKQSHGKSLEWIGYIAPNNGGTAYNQKFRGKATLTVNESSNTAYMELRSLTSEDSAVYYCVDWDDVDYWGQGTTLTVSS
VL: DIKMTQSPSSMYASLGERVTITCKASQDINSYLSWFQQKSGKSPKTLIYRANRLVDGVPSRFSGSGSGQDYSLTISSLEYEDMGIYYCLQYVEFPLTFGAGTKLELK
notes: also called mAb009-105F1E10
B2 came in with a Mean fluorescence intensity in assay [1] of 315 MFI.

B3: 105F1E10 (LAG-3 mouse-human chimeric antibody) (antibody, V domains shown)
VH: EVQLQQSGPELVKPGASVKMSCRASGYTFTDFKMHWMKQSHGKSLEWIGYIAPNNGGTAYNQKFRGKATLTVNESSNTAYMELRSLTSEDSAVYYCVDWDDVDYWGQGTTLTVSS
VL: DIKMTQSPSSMYASLGERVTITCKASQDINSYLSWFQQKSGKSPKTLIYRANRLVDGVPSRFSGSGSGQDYSLTISSLEYEDMGIYYCLQYVEFPLTFGAGTKLELK
On to B3, for which the OD450 in assay [2] came to 0.08 OD450; in assay [3], 0.09 OD450.

B4: 405B8H3 (LAG-3 mouse-human chimeric antibody) (antibody, V domains shown)
VH: QVQLQQSGAELVRPGASVTLSCKASGYTFTDYEMHWVKQTPVHGLEWIGATDPETGNSAYNQKFKGKAIMTADKSSSTAYMELRSLTSEDSAVYYCISTGWNDWGQGTSLTVSS
VL: DIKMTQSPSSMYASLGERVTITCKASQDINSYLSWFQQKPGKSPKTLIYRADRLLDGVPSRFSGSGSGQDYSLTISSLEYGDMGIYYCLQYDEFPYTFGGGTKLEIK
notes: also called mouse-human chimeric antibody 405B8H3
On to B4, for which the OD450 in assay [2] and in assay [3] was 0.08 OD450 each time.

B5: 409D4E10 (mouse antibody purified from hybridoma) (antibody, V domains shown)
VH: QVQLQQSGAELVRPGASVTLSCKASGNTFTDYEMHWVKQTPVHGLEWIGATDPETDNTAYNQKFKGKAILTTDKSSSTAYMELRSLTSEDSAVYYCITSGWNDWGQGTSLTVSS
VL: DIKMTQSPSSMYASLGERVTITCKASQDINSYLSWFQQKPGKSPKTLIYRANRLLDGVPSRFSGSGSGQDYSLTISSLEYEDMGIYYCLQYNEFPYTFGGGTKLEIK
notes: also called mAb112-409D4E10
Molecule B5 yielded a Mean fluorescence intensity in assay [1] of 153 MFI.

B6: 409B11E12 (mouse antibody purified from hybridoma) (antibody, V domains shown)
VH: QVQLQQSGAELVRPGASVTLSCKASGYTFTDYEMHWVKQTTVHGLEWIGATDPETSYSAYNQKFKGKAILTADKSSSTAYMELRSLTSEDSAVYYCIATGWNDWGQGTSLTVSS
VL: DLKMTQSPSSMYASLGERVTITCKASQDINSYLSWFQQKPGKSPKTLIYRANRLLDGVPSRFSGSGSGQDYSLTISSLEYEDMGIYYCLQYDEFPYTFGGGTKLEIK
notes: also called mAb104-409B11E12
As for B6, the Mean fluorescence intensity in assay [1] is 148 MFI.

B7: 409B11E12 (LAG-3 mouse-human chimeric antibody) (antibody, V domains shown)
VH: QVQLQQSGAELVRPGASVTLSCKASGYTFTDYEMHWVKQTTVHGLEWIGATDPETSYSAYNQKFKGKAILTADKSSSTAYMELRSLTSEDSAVYYCIATGWNDWGQGTSLTVSS
VL: DLKMTQSPSSMYASLGERVTITCKASQDINSYLSWFQQKPGKSPKTLIYRANRLLDGVPSRFSGSGSGQDYSLTISSLEYEDMGIYYCLQYDEFPYTFGGGTKLEIK
As to B7, the OD450 in assay [2] and in assay [3] was 0.09 OD450 throughout.

B8: 409D4E10 (LAG-3 mouse-human chimeric antibody) (antibody, V domains shown)
VH: QVQLQQSGAELVRPGASVTLSCKASGNTFTDYEMHWVKQTPVHGLEWIGATDPETDNTAYNQKFKGKAILTTDKSSSTAYMELRSLTSEDSAVYYCITSGWNDWGQGTSLTVSS
VL: DIKMTQSPSSMYASLGERVTITCKASQDINSYLSWFQQKPGKSPKTLIYRANRLLDGVPSRFSGSGSGQDYSLTISSLEYEDMGIYYCLQYNEFPYTFGGGTKLEIK
With B8, the OD450 is 0.13 OD450 in assay [2] and 0.1 OD450 in assay [3].

B9: 556F6B8 (mouse antibody purified from hybridoma) (antibody, V domains shown)
VH: RVQLKQSGPGLVQPSQSLSITCTVSGFSLIKYGVHWVRQSPGEGLEWLGVIWRGGITDYNAAFMSRLSITKDNSKSQVFFKMNSLQADDTAIYYCAKWDGPLAMDYWGQGTSVTVSS
VL: DIVMTQSHKFLSTSVGDRVSITCKASQDVGTTVAWYQQKPGQSPKLLIYWASTRHTGVPDRFTGSGSGTDFTLTISNVQSEDLADYFCQQYSSYPYTFGGGTKLEIK
notes: also called mAb123-556F6B8
Turning to B9, the Mean fluorescence intensity in assay [1] was found to be 81.8 MFI.

B10: 556F6B8 (LAG-3 mouse-human chimeric antibody) (antibody, V domains shown)
VH: RVQLKQSGPGLVQPSQSLSITCTVSGFSLIKYGVHWVRQSPGEGLEWLGVIWRGGITDYNAAFMSRLSITKDNSKSQVFFKMNSLQADDTAIYYCAKWDGPLAMDYWGQGTSVTVSS
VL: DIVMTQSHKFLSTSVGDRVSITCKASQDVGTTVAWYQQKPGQSPKLLIYWASTRHTGVPDRFTGSGSGTDFTLTISNVQSEDLADYFCQQYSSYPYTFGGGTKLEIK
notes: also called 556F8B8
Take B10: the results for the OD450 in assay [2] and in assay [3] were 0.11 OD450 and 0.14 OD450, respectively.
